The values below come from article PMC11717252, “Biophysical and biochemical evidence for the role of acetate kinases (AckAs) in an acetogenic pathway in pathogenic spirochetes” (PLOS ONE, 2025).

“And” between values parts separate entries of the source, which are not always exact repeats. Identical values can stand only once.

By stoichiometry N is commonly meant a count of units in the complex or per binding partner. For orientation: Km means the concentration of substrate that gives half-maximal velocity. Broadly, the kcat is the maximal rate divided by the concentration of active sites. For orientation: kcat/Km means the second-order rate constant that governs catalysis at low substrate concentration.

Data set [1] has as its target TV0924 (TREVI0001_0924), acetate kinase from Treponema vincentii (Treponema vincentii). Briefly: AUC; sedimentation velocity, 20°C, Buffer A (20 mM HEPES, 0.1 M NaCl, pH 7.5, 2 mM n-octyl-β-D-glucopyranoside), 50,000 rpm, absorbance at 280 nm, c(s) analysis in SEDFIT; self-association.
For data set [2] the target is unchanged. Kind of data set: mass photometry; TwoMP (Refeyn), sample diluted in PBS, ca. 10 nM in the droplet, 60-s movie; self-association.
The target in data set [3] is T1, TV0924 (TREVI0001_0924; rTV0924; TvAckA) (Treponema vincentii, UniProt C8PR54).
T1 construct: gene ackA; homodimer, calculated dimer mass 104,820 g/mol
T1 sequence (C8PR54 1-449): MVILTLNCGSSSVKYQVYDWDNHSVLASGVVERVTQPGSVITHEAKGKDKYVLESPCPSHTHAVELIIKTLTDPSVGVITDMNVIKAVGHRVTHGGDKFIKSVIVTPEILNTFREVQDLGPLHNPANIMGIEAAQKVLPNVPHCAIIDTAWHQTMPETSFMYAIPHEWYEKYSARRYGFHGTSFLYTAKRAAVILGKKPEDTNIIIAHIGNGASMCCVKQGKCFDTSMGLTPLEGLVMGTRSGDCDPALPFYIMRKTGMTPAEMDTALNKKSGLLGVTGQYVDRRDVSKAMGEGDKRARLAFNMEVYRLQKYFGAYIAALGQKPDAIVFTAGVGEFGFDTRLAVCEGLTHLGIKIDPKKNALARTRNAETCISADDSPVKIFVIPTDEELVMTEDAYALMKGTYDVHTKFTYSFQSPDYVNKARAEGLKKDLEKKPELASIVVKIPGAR
Kind of data set: X-ray crystal structure, […] Å. Type of data set: binding. The following applies: active site; co-crystallised with 5 mM ADP and 5 mM MgCl2, pH 5.5; modelled as AMP, may be hydrolysed ADP or ADP with disordered beta-phosphate.

Substrate in data set [4]: CC(=O)OP(=O)(O)O
Kind of data set: purified protein. It is filed as biochemical, Treponema pallidum. The settings on record: ATP-forming direction, ADP up to 5 mM, 20 mM MgCl2, 100 mM HEPES pH 7.5, 100 mM NaCl, 37 °C.

Substrate in data set [5]: Nc1ncnc2c1ncn2[C@@H]1O[C@H](COP(=O)(O)OP(=O)(O)O)[C@@H](O)[C@H]1O
Kind of data set: purified protein. The following applies: ATP-forming direction, acetyl phosphate up to 10 mM, 20 mM MgCl2, 100 mM HEPES pH 7.5, 100 mM NaCl, 37 °C. Type of data set: biochemical, Treponema pallidum.

Data set [6] deals with the molecule itself. Kind of data set: AUC; sedimentation velocity, 20°C, Buffer A (20 mM HEPES, 0.1 M NaCl, pH 7.5, 2 mM n-octyl-β-D-glucopyranoside), 50,000 rpm, absorbance at 280 nm, c(s) analysis in SEDFIT; self-association.
Data set [7] concerns the molecule itself. Briefly: mass photometry; TwoMP (Refeyn), sample diluted in PBS, ca. 10 nM in the droplet, 60-s movie; self-association.
Substrate in data set [8]: CC(=O)OP(=O)(O)O
Kind of data set: purified protein. Type of data set: biochemical, Treponema vincentii. The following applies: ATP-forming direction, ADP up to 5 mM, 20 mM MgCl2, 100 mM HEPES pH 7.5, 100 mM NaCl, 37 °C.

Substrate in data set [9]: Nc1ncnc2c1ncn2[C@@H]1O[C@H](COP(=O)(O)OP(=O)(O)O)[C@@H](O)[C@H]1O
Briefly: purified protein. It is filed as biochemical, Treponema vincentii. The settings on record: ATP-forming direction, acetyl phosphate up to 10 mM, 20 mM MgCl2, 100 mM HEPES pH 7.5, 100 mM NaCl, 37 °C.

In the case of “TV0924 (TREVI0001_0924), acetate kinase from Treponema vincentii (enzyme)”, the stoichiometry N in data set [1] and in data set [2] was 2 throughout.

Take `Nc1ncnc2c1ncn2[C@@H]1O[C@H](COP(=O)(O)O)[C@@H](O)[C@H]1O` [AMP]: the “X-ray crystal structure, 1.30 Å” value in data set [3] was “The nucleotide was modeled as AMP, and we refer to this structure below as TV0924‧AMP”.

B1: TP0476, acetate kinase from Treponema pallidum (enzyme, UniProt O83489 1-448, looked up)
chain: MIILTLNCGSSSVKYQVYNWTERAVIAVGVVERVTQAGSVITHEVHGRENHVRESPCPTHTEAVQLIISTLTDAHVGVISDMSLIKAVGHRVLHAADRFVKSVVVTPDVLETFRSVQDLGPLHNPANIRGIEAAQAVIPSVPHCAIMDTAWHQTMPEASFMYAVPRQWYEEYAVRRYGFHGTSFLYTAKRASVILKKRAEDTNIIIAHIGNGASMCCVKNGVSFDTSMGITPLEGLIMGTRCGDCDPALAFYIMRKTGMSVSDIDTTLNKQSGLLGITGKYVDRRDVCAAMKNGDALARLAFDMEVHRIRKYFGAYVAALGKQPDALVFTAGVGEMCCDVRAAACAGLEHLGIRLDARKNELARTRNAETEISTDDSPVRILVIPTDEELVMTEDTYALMQGTYDVHTRFTYSFQDPTYVNKARAAGLKRDLEKNPALATIVVPRLDT
notes: Acetate kinase TP0476 of Treponema pallidum, amino acid residues 1-448; The dominant species is a dimer; monomer, trimer, tetramer and aggregates were also seen; also called rTP0476; TpAckA
B1: in data set [4], the Km was determined as 380 ± 19 µM, the kcat was determined as 51.5 ± 0.8 s⁻¹ and the kcat/Km came to 137000 ± 11000 M⁻¹ s⁻¹. Further, in data set [5], the Km turned out to be 650 ± 70 µM, the kcat came to 63.3 ± 1.5 s⁻¹ and the kcat/Km was determined as 90000 ± 10000 M⁻¹ s⁻¹. The “stoichiometry N” value in data set [6] stood at 2. Moreover, the “stoichiometry N” value in [7] is 3 and 4.

B2: TV0924 (TREVI0001_0924; rTV0924; TvAckA) (Treponema vincentii ATCC 35580) (protein)
chain: T1 sequence (C8PR54 1-449)
notes: homodimer, calculated dimer mass 104,820 g/mol
As to B2, in [8], the Km turned out to be 320 ± 30 µM, the kcat turned out to be 3900 ± 300 s⁻¹ and the specificity constant (kcat/Km) turned out to be 1.19e+07 ± 400000 M⁻¹ s⁻¹. Besides, in [9], the Km is 650 ± 30 µM, the kcat stood at 4800 ± 400 s⁻¹ and the kcat/Km is 7.5e+06 ± 400000 M⁻¹ s⁻¹.
